Laboratory results as given in article PMC12421817, “c-di-GMP regulates bacterial NAD biosynthesis via targeting the transcriptional repressor NadR” (mBio, 2025).
Changes are numbered by the printed parent chain.

How the values were obtained:
[1] = target: T1, NadR H80A H80A (Salmonella enterica serovar Typhimurium) (UniProt P24518); assay: EMSA; settings: EMSA: 50 ng DNA, 20 mM Tris pH 7.5, 100 mM NaCl, 10% glycerol, 4 mM MgCl2, 1% NP-40, 1 mM DTT, 25 uL, 20 min room temperature; 6% native PAGE, 0.5x TBE, SYBR …
T1 sequence: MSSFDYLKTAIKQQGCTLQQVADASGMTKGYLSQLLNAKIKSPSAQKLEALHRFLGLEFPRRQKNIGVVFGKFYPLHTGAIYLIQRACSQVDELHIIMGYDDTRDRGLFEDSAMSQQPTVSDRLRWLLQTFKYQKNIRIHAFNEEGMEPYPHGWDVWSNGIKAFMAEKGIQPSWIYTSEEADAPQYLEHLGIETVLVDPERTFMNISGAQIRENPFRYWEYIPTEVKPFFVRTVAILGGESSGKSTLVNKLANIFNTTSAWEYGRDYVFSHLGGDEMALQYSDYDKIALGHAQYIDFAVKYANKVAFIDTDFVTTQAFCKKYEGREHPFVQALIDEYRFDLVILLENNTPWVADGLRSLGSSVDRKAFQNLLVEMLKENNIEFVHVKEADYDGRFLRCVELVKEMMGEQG

[2] = target: T2, NadR R212A R212A (Salmonella enterica serovar Typhimurium) (UniProt P24518); assay: EMSA; settings: EMSA: 50 ng DNA, 20 mM Tris pH 7.5, 100 mM NaCl, 10% glycerol, 4 mM MgCl2, 1% NP-40, 1 mM DTT, 25 uL, 20 min room temperature; 6% native PAGE, 0.5x TBE, SYBR …
T2 sequence: T1 sequence with A80H, R212A

Sequence | binding [1] | binding [2]
GCTCATCGTGGCTTCTCGTTTTACTGACTTAACGAAACAACCGAATGAAAGCGTAATAAACGCCACAATCGGTTAATTTGTTTTATATGCTAAACAAGATAGCTGATTCAATAAGGAAAGTCACAATAATTACGTAGCCCCGTATCTGATGGCGGCGTAACGTCTTATCTGGCCTACGTGAGCGGTGCCGTCTGTAGGCCTGAT (double strand) [nadA-pnuC promoter] | binds | binds
GGTTCTTGTTTAATTTACTAAACATGGTTGCGGCAGATTAGCACTATATGGCGCTAAAAAGCACGTTATGATTTCGCTGGTGTTGTGCTTATTAAACATAAAATAAAAATACGGCGAGAGATAAACGGCAAAAAATATTTTATAGGGCAGGGTGTTAGCGTCGGATTTTGTAGTGAAATAAAGATGCTGTTAGGTTACTC (double strand) [nadB promoter] | binds | binds
